Measurements from the supplement of paper PMC9112550, “Optimization of the antimicrobial peptide Bac7 by deep mutational scanning” (BMC Biology, 2022).

System: Escherichia coli TOP10
Test: shrunken log2 fold change of peptide-encoding DNA abundance (4.5 h post-induction vs induction); higher = less antimicrobial activity (less host growth inhibition)
Details: time post-induction: 4.5 h; library: site-saturation at positions 5, 18, 19, 20
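Note: peptides expressed intracellularly from a pBAD plasmid library in pooled LB shake-flask culture, induced with 0.3% L-arabinose, DNA abundance read by NGS, three biological replicates, DESeq2 with apeglm shrinkage.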

| Sequence | shrunken log2 fold change |
| --- | --- |
| RRIRTRPPRLPRPRPRPTKMPRP | -0.355 |
| RRIRNRPPRLPRPRPRPSVAPRP | -0.0478 |
| RRIRSRPPRLPRPRPRPEVRPRP | -0.109 |
| RRIRKRPPRLPRPRPRPHFNPRP | -0.0789 |
| RRIRWRPPRLPRPRPRPARHPRP | 0.31 |
| RRIRYRPPRLPRPRPRPLWWPRP | -0.696 |
| RRIRVRPPRLPRPRPRPIPGPRP | -0.0572 |
| RRIRFRPPRLPRPRPRPMSLPRP | -0.142 |
| RRIRIRPPRLPRPRPRPLEEPRP | 0.073 |
| RRIRFRPPRLPRPRPRPPSGPRP | 0.422 |
| RRIRNRPPRLPRPRPRPAEKPRP | 0.0519 |
| RRIRIRPPRLPRPRPRPCTIPRP | -0.25 |
| RRIRSRPPRLPRPRPRPTDAPRP | 0.236 |
| RRIRNRPPRLPRPRPRPKSRPRP | -0.0139 |
| RRIRFRPPRLPRPRPRPPPIPRP | 1.02 |
| RRIRDRPPRLPRPRPRPAQFPRP | 0.442 |
| RRIRYRPPRLPRPRPRPLRPPRP | 0.786 |
| RRIRGRPPRLPRPRPRPTNSPRP | 0.319 |
| RRIRVRPPRLPRPRPRPDQKPRP | 0.002 |
| RRIRYRPPRLPRPRPRPGNNPRP | -0.359 |
| RRIRRRPPRLPRPRPRPWFVPRP | 0.214 |
| RRIRSRPPRLPRPRPRPARCPRP | 0.114 |
| RRIRCRPPRLPRPRPRPLFFPRP | -0.273 |
| RRIRRRPPRLPRPRPRPAWAPRP | 0.791 |
| RRIRARPPRLPRPRPRPGMTPRP | 0.261 |

| Sequence | shrunken log2 fold change |
| --- | --- |
| RRIRARPPRLPRPRPRPVQFPRP | -0.0854 |
| RRIRARPPRLPRPRPRPVWLPRP | 0.399 |
| RRIRFRPPRLPRPRPRPPAVPRP | 0.713 |
| RRIRPRPPRLPRPRPRPVIFPRP | -0.11 |
| RRIRVRPPRLPRPRPRPSPVPRP | 0.216 |
| RRIRERPPRLPRPRPRPSMSPRP | -0.0748 |
| RRIRCRPPRLPRPRPRPWPCPRP | 1.63 |
| RRIRFRPPRLPRPRPRPHILPRP | -0.345 |
| RRIRRRPPRLPRPRPRPQVFPRP | 0.408 |
| RRIRARPPRLPRPRPRPGALPRP | 1.22 |
| RRIRFRPPRLPRPRPRPYMKPRP | -0.858 |
| RRIRERPPRLPRPRPRPNSDPRP | -0.142 |
| RRIRERPPRLPRPRPRPVRCPRP | 0.162 |
| RRIRCRPPRLPRPRPRPKTVPRP | -0.109 |
| RRIRGRPPRLPRPRPRPISYPRP | -0.0956 |
| RRIRFRPPRLPRPRPRPMIQPRP | -0.0594 |
| RRIRARPPRLPRPRPRPLIEPRP | 0.388 |
| RRIRRRPPRLPRPRPRPCPQPRP | 0.0779 |
| RRIRQRPPRLPRPRPRPHGLPRP | -0.327 |
| RRIRDRPPRLPRPRPRPSWCPRP | -0.0805 |
| RRIRLRPPRLPRPRPRPMCLPRP | -0.166 |
| RRIRCRPPRLPRPRPRPREKPRP | 1.12 |
| RRIRTRPPRLPRPRPRPDWDPRP | 0.223 |
| RRIRERPPRLPRPRPRPLRSPRP | 0.474 |
| RRIRLRPPRLPRPRPRPKHNPRP | -0.384 |

| Sequence | shrunken log2 fold change |
| --- | --- |
| RRIRQRPPRLPRPRPRPPYAPRP | -0.189 |
| RRIRARPPRLPRPRPRPIFHPRP | 0.183 |
| RRIRARPPRLPRPRPRPDDSPRP | 0.124 |
| RRIRCRPPRLPRPRPRPYSWPRP | -0.77 |
| RRIRVRPPRLPRPRPRPRQQPRP | 0.168 |
| RRIRERPPRLPRPRPRPYCHPRP | -0.467 |
| RRIRGRPPRLPRPRPRPFQNPRP | 0.31 |
| RRIRKRPPRLPRPRPRPAMHPRP | 0.402 |
| RRIRYRPPRLPRPRPRPRYQPRP | -0.0935 |
| RRIRERPPRLPRPRPRPRTIPRP | -0.337 |
| RRIRQRPPRLPRPRPRPIKYPRP | 0.00234 |
| RRIRYRPPRLPRPRPRPNTPPRP | -0.179 |
| RRIRGRPPRLPRPRPRPQVWPRP | 0.846 |
| RRIRERPPRLPRPRPRPEFVPRP | 0.137 |
| RRIRVRPPRLPRPRPRPHHRPRP | 3.34 |
| RRIRMRPPRLPRPRPRPHQYPRP | -0.41 |
| RRIRERPPRLPRPRPRPPFKPRP | -0.0871 |
| RRIRQRPPRLPRPRPRPPQYPRP | 0.198 |
| RRIRMRPPRLPRPRPRPLGKPRP | 0.0958 |
| RRIRHRPPRLPRPRPRPIVPPRP | 0.0781 |
| RRIRRRPPRLPRPRPRPYDKPRP | -0.213 |
| RRIRFRPPRLPRPRPRPMTFPRP | -0.0585 |
| RRIRGRPPRLPRPRPRPVQYPRP | 0.118 |
| RRIRWRPPRLPRPRPRPKMKPRP | 0.193 |
| RRIRRRPPRLPRPRPRPEVEPRP | 0.0165 |

| Sequence | shrunken log2 fold change |
| --- | --- |
| RRIRMRPPRLPRPRPRPALWPRP | 0.858 |
| RRIRMRPPRLPRPRPRPLAAPRP | 2.64 |
| RRIRCRPPRLPRPRPRPARQPRP | 0.0993 |
| RRIRYRPPRLPRPRPRPHFSPRP | -0.256 |
| RRIRTRPPRLPRPRPRPVQEPRP | 0.207 |
| RRIRHRPPRLPRPRPRPVNTPRP | -0.18 |
| RRIRKRPPRLPRPRPRPDNEPRP | 0.665 |
| RRIRWRPPRLPRPRPRPMEYPRP | 0.0388 |
| RRIRARPPRLPRPRPRPGYLPRP | 0.0801 |
| RRIRRRPPRLPRPRPRPPGEPRP | 0.705 |
| RRIRCRPPRLPRPRPRPTCPPRP | -0.26 |
| RRIRVRPPRLPRPRPRPICFPRP | 0.0059 |
| RRIRTRPPRLPRPRPRPQQHPRP | -0.37 |
| RRIRRRPPRLPRPRPRPFQEPRP | -0.264 |
| RRIRCRPPRLPRPRPRPDERPRP | -0.149 |
| RRIRTRPPRLPRPRPRPTIVPRP | -0.0242 |
| RRIRGRPPRLPRPRPRPLWMPRP | 0.343 |
| RRIRRRPPRLPRPRPRPGRDPRP | 0.717 |
| RRIRWRPPRLPRPRPRPQRCPRP | 0.103 |
| RRIRTRPPRLPRPRPRPGSGPRP | 0.344 |
| RRIRNRPPRLPRPRPRPQTEPRP | -0.219 |
| RRIRVRPPRLPRPRPRPPMNPRP | -0.205 |
| RRIRKRPPRLPRPRPRPETEPRP | 0.0991 |
| RRIRERPPRLPRPRPRPKTVPRP | -0.0153 |
| RRIRRRPPRLPRPRPRPFGEPRP | 0.412 |

| Sequence | shrunken log2 fold change |
| --- | --- |
| RRIRMRPPRLPRPRPRPCIPPRP | -0.159 |
| RRIRERPPRLPRPRPRPNIPPRP | -0.396 |
| RRIRWRPPRLPRPRPRPYHWPRP | -0.236 |
| RRIRTRPPRLPRPRPRPHYSPRP | -0.0429 |
| RRIRFRPPRLPRPRPRPTFCPRP | -0.152 |
| RRIRVRPPRLPRPRPRPEINPRP | -0.00259 |
| RRIRLRPPRLPRPRPRPSKLPRP | -0.388 |
| RRIRERPPRLPRPRPRPGDQPRP | -0.0675 |
| RRIRVRPPRLPRPRPRPQPCPRP | -0.0059 |
| RRIRMRPPRLPRPRPRPCFGPRP | -0.23 |
| RRIRYRPPRLPRPRPRPAMFPRP | -0.229 |
| RRIRFRPPRLPRPRPRPKFHPRP | -0.42 |
| RRIRSRPPRLPRPRPRPCFMPRP | 0.914 |
| RRIRARPPRLPRPRPRPNWHPRP | 0.163 |
| RRIRCRPPRLPRPRPRPAWKPRP | 0.0545 |
| RRIRFRPPRLPRPRPRPLDDPRP | -0.209 |
| RRIRERPPRLPRPRPRPYMEPRP | 0.0111 |
| RRIRVRPPRLPRPRPRPFAVPRP | -0.00738 |
| RRIRPRPPRLPRPRPRPQIFPRP | -0.137 |
| RRIRKRPPRLPRPRPRPFHKPRP | -0.00277 |
| RRIRNRPPRLPRPRPRPAEQPRP | -0.018 |
| RRIRCRPPRLPRPRPRPATIPRP | -0.55 |
| RRIRCRPPRLPRPRPRPTDLPRP | 0.0853 |
| RRIRSRPPRLPRPRPRPSIDPRP | -0.536 |
| RRIRKRPPRLPRPRPRPHTTPRP | 0.0925 |

| Sequence | shrunken log2 fold change |
| --- | --- |
| RRIRFRPPRLPRPRPRPQWCPRP | -0.0514 |
| RRIRWRPPRLPRPRPRPSTFPRP | -0.616 |
| RRIRLRPPRLPRPRPRPVLQPRP | 0.195 |
| RRIRCRPPRLPRPRPRPRETPRP | 0.647 |
| RRIRGRPPRLPRPRPRPMEDPRP | -0.0262 |
| RRIRCRPPRLPRPRPRPWASPRP | 0.0212 |
| RRIRQRPPRLPRPRPRPYMAPRP | -0.274 |
| RRIRQRPPRLPRPRPRPNMWPRP | -0.419 |
| RRIRQRPPRLPRPRPRPYLIPRP | -0.89 |
| RRIRNRPPRLPRPRPRPHQNPRP | -0.239 |
| RRIRARPPRLPRPRPRPEWLPRP | 1.25 |
| RRIRQRPPRLPRPRPRPQRAPRP | 0.224 |
| RRIRERPPRLPRPRPRPVALPRP | -0.377 |
| RRIRVRPPRLPRPRPRPVGGPRP | 0.306 |
| RRIRARPPRLPRPRPRPVCVPRP | 0.579 |
| RRIRARPPRLPRPRPRPQNAPRP | 0.243 |
| RRIRRRPPRLPRPRPRPFGHPRP | 0.0281 |
| RRIRERPPRLPRPRPRPTSMPRP | -0.713 |
| RRIRPRPPRLPRPRPRPRFPPRP | 0.233 |
| RRIRKRPPRLPRPRPRPWLSPRP | 0.0773 |
| RRIRVRPPRLPRPRPRPAITPRP | -0.142 |
| RRIRHRPPRLPRPRPRPKNEPRP | -0.476 |
| RRIRIRPPRLPRPRPRPSKIPRP | -0.441 |
| RRIRTRPPRLPRPRPRPTSFPRP | 0.0555 |
| RRIRHRPPRLPRPRPRPFFMPRP | -0.564 |
